Legend:
[1] = biological target: T1, Myc epitope-tagged wild-type XIAP (Homo sapiens (Human), UniProt P98170 1-497); experiment: immunofluorescence co-localization by confocal microscopy in COS-7 cells transfected with AU5-ARTS and pcDNA3-Myc-XIAP, treated with etoposide
T1 construct: Expressed by transient transfection in COS-7 cells and used as cell lysate; The construct came from Dr. Colin S. Duckett; also called myc-tagged XIAP; mycXIAP
Description: FIG. 5. ARTS and XIAP co-localize during apoptosis. Immunofluorescence assay of COS-7 cells with anti-ARTS antibody (left column) and anti-XIAP antibody (second column from left). Nuclei are stained with Dapi (third column from left). Merged images are shown in the right column. Cells were untreated (top panel) or treated with […] etoposide for 2 hours (middle panel) or 16 hours (lower panel). Cells were analyzed using confocal microscopy (magnification 60). Non-apoptotic cells had very little overlap between ARTS and XIAP staining (top panel), with ARTS primarily localized to mitochondria and XIAP staining cytoplasmic, with some peri-nuclear concentration. Two hours after induction of apoptosis, co-localization of ARTS and XIAP occurred primarily near the nucleus (middle panel). After 16 hr both proteins perfectly co-localized in the nucleus.
To confirm the finding that ARTS-XIAP complexes exist in apoptotic cells, COS-7 cells transfected with AU5-ARTS and pcDNA3-Myc-XIAP were visualized by confocal microscopy. Apoptosis was induced with etoposide, and cells were stained after 2 and 16 hours. In non-apoptotic cells, ARTS and XIAP had distinct, essentially non-overlapping distributions, with ARTS primarily localized to mitochondria, whereas XIAP was localized to the cytoplasm, with some peri-nuclear concentration (FIG. 5, top panel). […]

[2] = test system: XIAP; experiment: Co-immunoprecipitation of ARTS-XIAP complexes in COS-7 cells; assay type: cell-based, African Green Monkey; settings: un-transfected COS-7 cells, apoptosis induced with staurosporine, IP anti-ARTS
Description: Protein extracts were prepared with lysis buffer (150 mM NaCl, 50 mM Tris-HCl (pH 8), 1% NP-40, 0.5% deoxycholate acid) with protease inhibitors. Lysates containing equal amounts of total protein were pre-cleared overnight with 1 mg mouse IgG (Sigma) coupled with protein A/G-Sepharose mix (Amersham Biosciences) and the beads centrifuged. Supernatants were immuno-precipitated using 5 μl of anti-ARTS antibody for 4 h, anti-XIAP antibody, rabbit anti-myc antibody, or mouse IgG (negative control). Protein A/G Sepharose beads were added for 1 hour and washed four times with PBS. Antibodies against XIAP (as above), Myc (Santa Cruz), or anti-ARTS (NT) antibodies directed against the common N′ terminus of ARTS and H5 (ProSci Incorporated) were used for Western blot.

[3] = biological target: T2, XIAP (Homo sapiens, UniProt P98170); experiment: In vitro binding assay, recombinant ARTS with GST-XIAP; settings: GST-XIAP and purified recombinant ARTS protein, GST alone as negative control
T2 construct: made in house; host or cells: bacteria (pGEX-XIAP plasmid obtained from Dr. Colin S. Duckett)
Description: Recombinant ARTS protein was generated with the TNT-Quick Coupled Transcription/Translation System™ (Promega) and incubated overnight at 4° C. with either recombinant GST-XIAP bound to glutathione beads, or with GST alone bound to glutathione beads, followed by Western blot with anti-ARTS or anti-GST antibody (Gibco).

[4] = biological target: T2, XIAP; experiment: GST pull-down assay of ARTS and XIAP; assay type: binding
Source text: For the glutathione-S-transferase (GST)-pull down assays, ARTS was subcloned into the pGEX 4T™ (Pharmacia Biotech) construct; GST-ARTS fusion protein was generated by Polymerase Chain Reaction (PCR) using the following primers: • BamHI-5′-[…]-3′ (SEQ ID No: 4) and • EcoRI-5′ […]-3′ (SEQ ID No: 5) and cloned into BamHI and EcoRI sites in pGEX 4T. Preparation of Beads
For in vitro binding studies, recombinant GST-ARTS or GST-XIAP fusion proteins were purified from bacteria. After sonication, 0.1% Triton X-100 and protease inhibitors (Mini-Complete™, Roche) were added to the bacterial extract followed by 10,000 rotations per minute (RPM) centrifugation. Supernatants of bacterial extracts were collected and incubated in the presence of glutathione-Sepharose 4B beads (Amersham Biosciences) for 30 minute at 4° C. The beads were washed three times.
Cells were lysed in RIPA buffer (150 mM NaCl, 50 mM Tris-HCl (pH 8), 1% NP-40, 0.1% SDS, 0.5% deoxycholate acid containing protease inhibitors (mini Complete, Roche)). Samples were divided into two tubes; one was rotated for 4 h at 4° C. with GST-ARTS fusion protein coupled with the glutathione beads, or GST-XIAP fusion protein. The second tube was incubated with glutathione beads alone (negative control). Samples were centrifuged at 4000-RPM at 4° C. for 4 minute and washed five times in lysis buffer, then boiled in sample buffer for 5 minutes to elute bound proteins Proteins were separated on 12.5% SDS-PAGE gel followed by Western blot analysis using monoclonal anti-ARTS antibody (Sigma), monoclonal anti-XIAP antibody (BD Transduction Laboratories) or monoclonal anti-myc antibody (Clontech).

T2 sequence (P98170 whole entry): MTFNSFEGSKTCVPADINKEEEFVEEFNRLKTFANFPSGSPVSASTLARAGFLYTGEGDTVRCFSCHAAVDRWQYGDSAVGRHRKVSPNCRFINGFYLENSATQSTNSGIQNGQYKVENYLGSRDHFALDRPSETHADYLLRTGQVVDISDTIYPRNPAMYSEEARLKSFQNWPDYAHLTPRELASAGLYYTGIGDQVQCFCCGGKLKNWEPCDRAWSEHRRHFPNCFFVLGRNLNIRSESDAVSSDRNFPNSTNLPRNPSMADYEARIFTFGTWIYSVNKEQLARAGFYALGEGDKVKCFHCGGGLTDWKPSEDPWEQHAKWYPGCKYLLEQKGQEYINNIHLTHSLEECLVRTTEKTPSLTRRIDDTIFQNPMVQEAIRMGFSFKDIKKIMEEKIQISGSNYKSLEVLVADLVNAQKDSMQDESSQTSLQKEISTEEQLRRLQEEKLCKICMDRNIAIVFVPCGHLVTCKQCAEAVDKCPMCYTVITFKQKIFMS
T1 sequence (P98170 whole entry): as above

B1: AU5-ARTS (other)
chain: MIKRFLEDTTDDGELSKFVKDFSGNASCHPPEAKTWASRPQVPEPRPQAPDLYDDDLEFRPPSRPQSSDNQQYFCAPAPLSPSARPRSPWGKLDPYDSSEDDKEYVGFATLPNQVHRKSVKKGFDFTLMVAGESGLGKSTLVNSLFLTDLYRDRKLLGAEERIMQTVEITKHAVDIEEKGVRLRLTIVDTPGFGDAVNNTECWKPVAEYIDQQFEQYFRDESGLNRKNIQDNRVHCCLYFISPFGHGYGPSLRLLAPPGAVKGTGQEHQGQGCH
notes: Expressed in transfected COS-7 cells and used as lysate or stained in cells; also called pEF1-AU5-ARTS; AU5-tagged ARTS; not shown: AU5 tag attached to the N' terminus of ARTS
binding result [1]: binds
interaction of endogenous ARTS and XIAP [2]: interact with each other
ARTS-XIAP binding, direct or not [3]: direct
binding to GST-XIAP ([4]; lysates of COS-7 cells transfected with AU5-tagged construct, Western blot anti-AU5): bound to XIAP
binding of XIAP to GST-ARTS ([4]; lysates of COS-7 cells transfected with pcDNA3 mycXIAP, Western blot anti-XIAP and anti-Myc): XIAP bound to ARTS

Source: patent publication US20050227302A1, “Induction of apoptosis via ARTS-IAP complexes” (priority 2004, published 2005)
